The text below walks through data of patent US20210223235A1.

This test deals with QTARK^MeSTGC (SEQ ID NO: 4), methylated H3K9 peptide ligand immobilized on the monolayer. The test can be described thus: cell-based or functional assay.

Turning to “Cbx1 fusion protein (Cbx1 chromodomain fused to KDAC8 through a short linker) (from UniProt P83916 20-73; Q9BY41 1-377)”, the rate acceleration for the deacetylation reaction (SAMDI mass spectrometry) is 20 fold.
